Assay results as given in paper PMC12691639.

Molecular target: His-K62-HA expressed in E. coli without the eukaryotic N-terminal signal sequence (Saccharomyces paradoxus)
Assay: denaturing SDS-PAGE and western blot (heat- and detergent-resistant oligomers); E. coli membrane fractions treated with urea before boiling with gel loading buffer; high molecular weight complex taken apart into discrete oligomers

His-K62-HA expressed in E. coli without the eukaryotic N-terminal signal sequence (natural protein)
stoichiometry N: > 9
